Values quoted from earlier work as cited in paper PMC8915186.

Target: IL-1R1 (Homo sapiens) (UniProt P14778)
Chain of UniProt P14778 (P14778 18-569): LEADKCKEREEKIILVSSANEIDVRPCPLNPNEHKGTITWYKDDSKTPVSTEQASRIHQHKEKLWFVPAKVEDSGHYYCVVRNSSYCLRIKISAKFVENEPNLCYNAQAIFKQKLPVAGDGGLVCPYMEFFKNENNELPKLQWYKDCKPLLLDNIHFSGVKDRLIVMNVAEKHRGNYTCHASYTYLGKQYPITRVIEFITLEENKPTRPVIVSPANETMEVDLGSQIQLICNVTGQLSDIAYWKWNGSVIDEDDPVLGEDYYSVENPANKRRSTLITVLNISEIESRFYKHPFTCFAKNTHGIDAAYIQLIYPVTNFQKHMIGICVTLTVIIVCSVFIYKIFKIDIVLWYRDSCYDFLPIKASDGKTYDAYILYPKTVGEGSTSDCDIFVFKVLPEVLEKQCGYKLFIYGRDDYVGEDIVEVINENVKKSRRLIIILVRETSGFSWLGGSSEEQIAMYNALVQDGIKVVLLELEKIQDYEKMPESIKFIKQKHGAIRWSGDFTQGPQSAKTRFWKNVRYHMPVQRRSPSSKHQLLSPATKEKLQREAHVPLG

Kd: 2 nM
Substance: IL-1β (from UniProt P01584)
